The values below are quoted from earlier work in publication PMC4549621.

The Kd is the free concentration of one partner at which half of the binding sites on the other are occupied at equilibrium, for simple one-to-one binding.

In this series the target is amyloid-beta monomer Abeta (Homo sapiens) (UniProt P05067).

As for gantenerumab, the Kd is 0.6 nM.
